Patent US20170240645A1 (Genentech, published 2017)

Legend:
[1] = molecular target: T1, PMEL17 N-terminal deletion mutant Δ255 (human, UniProt P40967 256-661); test: immunoblot of cell lysates
T1 construct: the real construct lacks the N-terminal part; Tested in cell lysates by immunoblot
T1 sequence: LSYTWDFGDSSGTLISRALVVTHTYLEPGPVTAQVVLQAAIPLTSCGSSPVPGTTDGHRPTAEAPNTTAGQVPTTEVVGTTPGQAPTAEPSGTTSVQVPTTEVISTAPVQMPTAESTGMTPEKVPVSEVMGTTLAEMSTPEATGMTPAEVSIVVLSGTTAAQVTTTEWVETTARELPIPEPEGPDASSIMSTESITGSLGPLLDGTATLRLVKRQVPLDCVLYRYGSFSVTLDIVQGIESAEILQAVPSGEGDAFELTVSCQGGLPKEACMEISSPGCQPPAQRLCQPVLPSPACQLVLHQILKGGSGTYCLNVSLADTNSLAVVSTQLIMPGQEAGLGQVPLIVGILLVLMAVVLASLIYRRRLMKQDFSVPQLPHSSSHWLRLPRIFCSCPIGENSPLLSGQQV

[2] = molecular target: T2, PMEL17 N-terminal deletion mutant Δ100 (human, UniProt P40967 101-661); test: immunoblot of cell lysates
T2 construct: the real construct lacks the N-terminal part; Tested in cell lysates by immunoblot
T2 sequence: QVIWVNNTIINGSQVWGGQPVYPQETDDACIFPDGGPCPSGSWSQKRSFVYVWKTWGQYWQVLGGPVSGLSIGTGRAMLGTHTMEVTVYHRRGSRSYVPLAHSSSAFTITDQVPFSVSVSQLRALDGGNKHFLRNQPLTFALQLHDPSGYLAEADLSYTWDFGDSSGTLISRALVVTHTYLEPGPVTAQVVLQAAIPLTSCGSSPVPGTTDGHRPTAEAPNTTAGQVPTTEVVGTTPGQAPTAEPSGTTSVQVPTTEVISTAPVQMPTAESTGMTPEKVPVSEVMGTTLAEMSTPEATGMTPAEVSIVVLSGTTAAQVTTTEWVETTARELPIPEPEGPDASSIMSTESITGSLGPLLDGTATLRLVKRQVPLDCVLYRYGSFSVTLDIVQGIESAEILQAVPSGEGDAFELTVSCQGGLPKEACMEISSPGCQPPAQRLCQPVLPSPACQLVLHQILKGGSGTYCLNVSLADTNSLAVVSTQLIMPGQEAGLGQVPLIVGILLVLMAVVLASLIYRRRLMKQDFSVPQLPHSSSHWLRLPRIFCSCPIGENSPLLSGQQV

[3] = molecular target: T3, cynomolgus monkey PMEL17 with an N-terminal gD tag (cynomolgus monkey, UniProt P40967 25-661 (human entry)); test: FACS, 293S cells stably transfected with gD tagged PMEL17, 10 µg/ml 17A9
T3 construct: On stably transfected 293S cells; also called N-terminal gD tagged PMEL17 (cynomolgus monkey)
T3 chain: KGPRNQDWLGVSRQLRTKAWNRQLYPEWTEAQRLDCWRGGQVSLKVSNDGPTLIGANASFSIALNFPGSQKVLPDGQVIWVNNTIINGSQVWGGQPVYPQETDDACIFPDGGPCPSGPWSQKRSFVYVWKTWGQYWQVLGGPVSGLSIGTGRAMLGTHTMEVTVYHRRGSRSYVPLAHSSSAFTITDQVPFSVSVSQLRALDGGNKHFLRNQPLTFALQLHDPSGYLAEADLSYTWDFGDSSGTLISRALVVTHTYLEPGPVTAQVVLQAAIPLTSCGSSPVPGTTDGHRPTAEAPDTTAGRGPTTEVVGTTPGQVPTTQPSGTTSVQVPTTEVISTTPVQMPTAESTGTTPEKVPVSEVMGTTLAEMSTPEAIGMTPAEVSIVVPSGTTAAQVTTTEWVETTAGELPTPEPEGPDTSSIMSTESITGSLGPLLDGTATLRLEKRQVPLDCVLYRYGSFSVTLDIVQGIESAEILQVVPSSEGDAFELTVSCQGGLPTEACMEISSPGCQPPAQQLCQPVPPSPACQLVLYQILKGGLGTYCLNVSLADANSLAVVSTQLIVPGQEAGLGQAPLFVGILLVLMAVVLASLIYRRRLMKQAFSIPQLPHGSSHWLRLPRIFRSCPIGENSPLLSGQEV
Method: (§1) Antibody 17A9 was tested to determine if it cross-reacts with PMEL17 from species other than human. […] All of the sequences include the signal sequence except for the cynomolgus monkey PMEL17. Residues that are identical among all four species are indicated by asterisks (*). In the region where the rat sequence has a deletion, residues that are identical among the remaining three species are indicated by a plus (+). Binding to each species of PMEL17 was determined by FACS analysis using 293S cells stably transfected with an N-terminal gD tagged PMEL17 (human, cynomolgus monkey, rat, or mouse PMEL17); stained with 10 μg/ml 17A9 antibody; and detected with R-Phycoerythrin conjugated goat anti-mouse antibody.

[4] = molecular target: T4, mouse PMEL17 with an N-terminal gD tag (mouse, UniProt Q60696 26-626); test: as above
T4 construct: On stably transfected 293S cells; also called N-terminal gD tagged PMEL17 (mouse)
T4 sequence: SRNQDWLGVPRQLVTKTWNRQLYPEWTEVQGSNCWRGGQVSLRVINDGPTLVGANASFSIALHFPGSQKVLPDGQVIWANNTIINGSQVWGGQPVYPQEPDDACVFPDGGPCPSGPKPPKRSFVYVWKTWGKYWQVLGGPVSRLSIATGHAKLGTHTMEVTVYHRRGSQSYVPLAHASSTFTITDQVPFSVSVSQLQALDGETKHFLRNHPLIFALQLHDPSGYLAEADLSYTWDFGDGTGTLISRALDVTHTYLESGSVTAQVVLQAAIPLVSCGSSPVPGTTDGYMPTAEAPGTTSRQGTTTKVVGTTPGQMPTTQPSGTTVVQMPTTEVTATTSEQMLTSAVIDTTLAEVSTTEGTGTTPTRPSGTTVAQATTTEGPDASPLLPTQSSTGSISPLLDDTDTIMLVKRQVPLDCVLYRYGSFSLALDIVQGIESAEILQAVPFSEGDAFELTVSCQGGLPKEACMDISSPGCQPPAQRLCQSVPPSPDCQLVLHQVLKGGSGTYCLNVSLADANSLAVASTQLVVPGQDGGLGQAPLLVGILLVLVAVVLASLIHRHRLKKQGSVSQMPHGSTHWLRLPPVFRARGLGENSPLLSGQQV
Method: as §1

binding result [1]: no binding | binding result [2]: no binding | binding result [3]: binds | binding result [4]: binds
B1: 17A9 (antibody, V domains shown)
VH: EVQLQQSGPELVKPGASMKISCKSSGYSFTRYTMNWVKQSHGKNLEWIGVINPYNGGTVYNQKFKGKATLTVDKSSSTAYMELLSLTSEDSAVYYCARTDYDGYAMDYWGQGTSVTVSS
VL: DVQITQSPSYLAASPGETITINCRATKSISKYLAWYQEQPGKTNNLLIYSGSTLQSGIPSRFSGSGSGTDFTLTISSLEPEDFAMYYCQQHNEYPYTFGSGTKLEIK
notes: Mouse monoclonal antibody from a hybridoma (mice immunized with PMEL17 ECD-Fc); also called anti-PMEL17 antibody 17A9
